US20250340608A1 (PROTAGONIST THERAPEUTICS, published 2025)
Primed or numbered codes have the meaning given here. Side chains are listed from the residue outwards. * marks the point of attachment. PEG8″ = PEG8 spacer conjugated to the Lys side chain; PEG8′ = PEG8 conjugated to the Lys side chain; Cyclohexanecarbonyl = O=C(C1CCCCC1)*; Palmitoyl = CCCCCCCCCCCCCCCC(=O)*; Me3Gly = C[N+](C)(C)CC(=O)*; Isovaleryl = CC(C)CC(=O)*; PEG2′ = not defined here; PEG3′ = not defined here; PEG4′ = not defined here

T1: human ferroportin (SLC40A1) fused in frame with GFP, stably expressed in HEK293 cells (human, UniProt Q9NP59 1-571)
T1 sequence (looked up): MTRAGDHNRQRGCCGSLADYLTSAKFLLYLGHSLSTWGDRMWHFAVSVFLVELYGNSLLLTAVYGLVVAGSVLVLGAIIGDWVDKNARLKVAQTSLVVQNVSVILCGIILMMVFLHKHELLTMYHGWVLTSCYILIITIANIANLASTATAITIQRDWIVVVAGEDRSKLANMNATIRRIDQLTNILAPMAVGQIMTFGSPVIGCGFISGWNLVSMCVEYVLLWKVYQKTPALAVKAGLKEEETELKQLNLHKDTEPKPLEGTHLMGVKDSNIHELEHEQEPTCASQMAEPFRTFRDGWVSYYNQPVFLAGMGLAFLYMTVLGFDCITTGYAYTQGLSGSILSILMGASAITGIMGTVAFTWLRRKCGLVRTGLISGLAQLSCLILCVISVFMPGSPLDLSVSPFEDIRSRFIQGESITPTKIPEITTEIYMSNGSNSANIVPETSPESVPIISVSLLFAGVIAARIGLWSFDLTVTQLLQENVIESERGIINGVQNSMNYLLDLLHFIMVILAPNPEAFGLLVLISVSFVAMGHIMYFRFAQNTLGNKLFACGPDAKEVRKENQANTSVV


biological target: T1, human ferroportin (SLC40A1) fused in …; assay: cell-based or functional assay

| Binder | Potency EC50 [nM] |
| --- | --- |
| Isovaleryl-DTHFPCIKFGPRSKGWVCK(PEG8′)-NH2 (cysteine pairing not given here) [Compound 153] | 18 |
| Isovaleryl-DTHFPCIKFGPRSCK-NH2 (cysteine pairing not given here) [Compound 188] | 30 |
| Cyclohexanecarbonyl-DTHFPCIKFGPRSKGWVCK-NH2 (not fully specified (bridges); cysteine pairing not given here) [Compound 168] | 30 |
| Isovaleryl-DTHFPCIKFC-NH2 (cysteine pairing not given here) [Compound 193] | 80 |
| H-VDTHFPCIKFGPRSKGWVCK-NH2 (cysteine pairing not given here) [Compound 164] | 146 |
| Isovaleryl-DTHFPCIIFGPRSRGWVCK(PEG4′)-NH2 (not fully specified (bridges); cysteine pairing not given here) [Compound 179] | 4 |
| Isovaleryl-DTHFPCIK(Palmitoyl)FGPRSKGWVCK-NH2 (cysteine pairing not given here) [Compound 194] | 4 |
| Isovaleryl-DTHFPCIIFGPRSKGWECK-NH2 (not fully specified (bridges); cysteine pairing not given here) [Compound 172] | 15 |
| Isovaleryl-DTHFPICIFGPRSK(PEG8″)GWVC-NH2 (not fully specified (bridges); cysteine pairing not given here) [Compound 176] | 6 |
| Isovaleryl-DTHFPCIKFEPRSKGWCK-NH2 (not fully specified (bridges); cysteine pairing not given here) [Compound 183] | 17 |
| {Isovaleryl-PEG3′}-DTHFPCIKFGPRSKGWVCK-NH2 (cysteine pairing not given here) [Compound 161] | 666 |
| Isovaleryl-DTHFPCIIFGPRSRGWVCK(PEG8″)-NH2 (not fully specified (bridges); cysteine pairing not given here) [Compound 178] | 3 |
| Isovaleryl-DTHFPCIKFGPRSK(Me3Gly)GWVCK-NH2 (cysteine pairing not given here) [Compound 157] | 18 |
| Isovaleryl-DTHFPCIKFEPRSKGWVCK-NH2 (not fully specified (bridges); cysteine pairing not given here) [Compound 181] | 15 |
| Isovaleryl-DTHFPICIFGPRSK(PEG4′)GWVC-NH2 (not fully specified (bridges); cysteine pairing not given here) [Compound 177] | 6 |
| Isovaleryl-DTHFPCIKFGPRSKGWTCK-NH2 (cysteine pairing not given here) [Compound 154] | 18 |
| Isovaleryl-DTHFPCIIFGPRSRGWVCK(PEG2′)-NH2 (not fully specified (bridges); cysteine pairing not given here) [Compound 180] | 9 |
| Isovaleryl-DTHFPCIKFGPRSKGWVCK(Me3Gly)-NH2 (cysteine pairing not given here) [Compound 159] | 17 |

Results, then the binder that gave them:

| Potency EC50 [nM] | Binder |
| --- | --- |
| 7 | Isovaleryl-DTHFPCIK([PEG3′-Palmitoyl])FGPRSKGWVCK-NH2 (cysteine pairing not given here) [Compound 199] |
| > 300 | DTHFPCIKFKPRSKGWVCK (not fully specified; IVA on side chain of Lys 10; C-terminal amide) [Compound 205] |
| 457 | DTHFPCIKFKPRSKGWVCK (PEG3-IVA on side chain of Lys 10; C-terminal amide) [Compound 210] |
| > 300 | H-DTHFPCIKFGPK([PEG3′-Isovaleryl])SKGWVCK-NH2 (cysteine pairing not given here) [Compound 211] |
| > 300 | H-DTHFPCIKFGPRSK([PEG3′-Isovaleryl])GWVCK-NH2 (cysteine pairing not given here) [Compound 212] |
| 4 | Isovaleryl-DTHFPCIKFGPK([PEG3′-Palmitoyl])SKGWVCK-NH2 (cysteine pairing not given here) [Compound 201] |
| 4 | Isovaleryl-DTHFPCIKFGPRSKGWVCK([PEG3′-Palmitoyl])-NH2 (cysteine pairing not given here) [Compound 203] |
| 6 | DTHFPCIKFKPRSKGWVCK (N-terminal isovaleric acid; PEG3-Palm on side chain of Lys 10; C-terminal amide) [Compound 200] |
| 342 | H-DTHFPCIK([PEG3′-Isovaleryl])FGPRSKGWVCK-NH2 (cysteine pairing not given here) [Compound 209] |
| 233 | H-DTHFPCIKFGPRSKGWVCK([PEG3′-Isovaleryl])-NH2 (cysteine pairing not given here) [Compound 213] |
| > 300 | H-DTHFPCIK(Isovaleryl)FGPRSKGWVCK-NH2 (cysteine pairing not given here) [Compound 204] |
| 3 | Isovaleryl-DTHFPCIKFGPRSK([PEG3′-Palmitoyl])GWVCK-NH2 (cysteine pairing not given here) [Compound 202] |
